The results in this text go back to patent US20220363748A1 (AstraZeneca / MedImmune, published 2022).

Assay [1] deals with T1, EGFR-Fc (R&D Systems #344-ER-050) (UniProt P00533 25-645).
T1 construct: Bought reagent; not shown: Fc part of the bought fusion; detected with anti-human IgG
Kind of assay: ELISA: biotinylated antigen on streptavidin plate, EGFR-Fc, detection with anti-human IgG HRP. On the procedure: (§1) Plates were washed 3×with 200 μl PBS-T (PBS +1% (v/v) Tween-20) and blocked with 300 μl/well blocking buffer (PBS with 1% BSA (Sigma, A9576)) for 1 hour. […] Plates were washed with 200 μl PBS-T three times. […] Plates were washed 3×with PBS-T and developed with TMB, 100 μl/well (Sigma, T0440). The reaction was quenched with 50 μl/well 0.1 M H2504. Absorbance was read at 450nm on the Cytation Gen5 or similar equipment.
For orientation: An ELISA detects its analyte on a solid surface through an enzyme-linked reagent.

Assay [2] concerns the target T2, RAGE-Fc (R&D Systems #1145-RG) (UniProt Q15109 24-344).
T2 construct: Bought reagent; not shown: Fc part of the bought fusion; detected with anti-human IgG
Kind of assay: ELISA: biotinylated antigen on streptavidin plate, RAGE-Fc at 10 µg/mL, detection with anti-human IgG HRP. On the procedure: as §1

Assay [3] has as its target T3, ST2S-Fc-His6 fusion protein (human, UniProt Q01638 19-328).
T3 construct: CD33 signal peptide used for secretion, not part of the protein; also called soluble human ST2S extracellular domain fused to human IgG1 Fc-His6; human ST2 ECD
T3 sequence: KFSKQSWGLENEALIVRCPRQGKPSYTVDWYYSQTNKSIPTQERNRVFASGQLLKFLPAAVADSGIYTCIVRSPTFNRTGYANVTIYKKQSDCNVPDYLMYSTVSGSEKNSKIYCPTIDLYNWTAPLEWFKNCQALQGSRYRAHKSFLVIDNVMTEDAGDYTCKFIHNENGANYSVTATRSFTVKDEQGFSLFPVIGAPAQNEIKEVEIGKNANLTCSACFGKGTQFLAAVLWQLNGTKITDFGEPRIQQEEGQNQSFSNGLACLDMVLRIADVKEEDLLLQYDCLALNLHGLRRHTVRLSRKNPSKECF
Kind of assay: depletion of remaining reduced IL-33 from the oxIL-33 preparation, in solution, then size exclusion.

The target in assay [4] is T1, EGFR-Fc (R&D Systems #344-ER-050). Kind of assay: ELISA: biotinylated antigen on streptavidin plate, EGFR-Fc with or without untagged RAGE, detection with anti-human IgG HRP. On the procedure: as §1
The target of assay [5] is T2, RAGE-Fc (R&D Systems #1145-RG). Kind of assay: ELISA: biotinylated antigen on streptavidin plate, RAGE-Fc, detection with anti-human IgG HRP. The procedure: as §1
For assay [6] the target is unchanged. Kind of assay: ELISA: biotinylated oxIL-33 on streptavidin plate, RAGE-Fc 10 µg/mL, anti-human IgG HRP. The procedure: as §1

T2 sequence (Q15109 24-344 limits assumed): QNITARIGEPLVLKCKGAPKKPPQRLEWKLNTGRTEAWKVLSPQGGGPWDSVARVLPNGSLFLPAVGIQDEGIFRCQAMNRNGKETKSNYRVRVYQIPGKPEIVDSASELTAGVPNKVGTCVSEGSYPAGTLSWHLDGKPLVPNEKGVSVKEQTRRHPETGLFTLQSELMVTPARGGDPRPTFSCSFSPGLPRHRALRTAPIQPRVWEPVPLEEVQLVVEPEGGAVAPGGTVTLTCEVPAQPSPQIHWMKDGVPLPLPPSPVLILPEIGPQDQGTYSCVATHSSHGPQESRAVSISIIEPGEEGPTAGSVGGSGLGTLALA

B1: HMGB1 (R&D systems 1690-HMB-050), biotinylated (ligand, UniProt P09429 1-215, looked up)
chain: MGKGDPKKPRGKMSSYAFFVQTCREEHKKKHPDASVNFSEFSKKCSERWKTMSAKEKGKFEDMAKADKARYEREMKTYIPPKGETKKKFKDPNAPKRPPSAFFLFCSEYRPKIKGEHPGLSIGDVAKKLGEMWNNTAADDKQPYEKKAAKLKEKYEKDIAAYRAKGKPDAAKKGVVKAEKSKKKKEEEEDEEDEEDEEEEEDEEDEDEEEDDDDE
modifications: biotinylated via free amines (EZ link Sulfo-NHS-LC-Biotin)
For the molecule B1, the figures for the binding result in assay [1] and in assay [2] were “no binding” and “binds”, respectively.

B2: Untagged IL33-01 (reduced IL-33) (ligand)
chain: SITGISPITEYLASLSTYNDQSITFALEDESYEIYVEDLKKDEKKDKVLLSYYESQHPSNESGDGVDGKMLMVTLSPTKDFWLHANNKEHSVELHKCEKPLPDQAFFVLHNMHSNCVSFECKTDPGVFIGVKDNHLALIKVDSSENLCTENILFKLSET
notes: also called redIL-33; wild type IL-33
For the molecule B2, the binding result in assay [3] is reported as “binds”.

B3: IL-33[C->S] (ligand)
cytokine: MHHHHHHHHHHAAGLNDIFEAQKIEWHEAAIEGRSITGISPITEYLASLSTYNDQSITFALEDESYEIYVEDLKKDEKKDKVLLSYYESQHPSNESGDGVDGKMLMVTLSPTKDFWLHANNKEHSVELHKSEKPLPDQAFFVLHNMHSNSVSFESKTDPGVFIGVKDNHLALIKVDSSENLSTENILFKLSET
modifications: biotinylated at the Avitag with BirA
notes: also called IL33-16
For the molecule B3, the binding result in assay [4] and in assay [5] was “no binding” throughout.

B4: Avitag_IL-33-01 (oxidised IL-33), biotinylated (ligand)
chain: MHHHHHHHHHHAAGLNDIFEAQKIEWHEAAIEGRSITGISPITEYLASLSTYNDQSITFALEDESYEIYVEDLKKDEKKDKVLLSYYESQHPSNESGDGVDGKMLMVTLSPTKDFWLHANNKEHSVELHKCEKPLPDQAFFVLHNMHSNCVSFECKTDPGVFIGVKDNHLALIKVDSSENLCTENILFKLSET
modifications: biotinylated on the Avitag with BirA; oxidised (disulphide bonded) form of IL-33
notes: also called oxIL-33; oxidised IL-33-01
Regarding B4, the binding result in assay [6] is recorded as “binds”.

B5: Biotinylated EGF (Thermo) (ligand, UniProt P01133 971-1023, looked up)
chain: NSDSECPLSHDGYCLHDGVCMYIEALDKYACNCVVGYIGERCQYRDLKWWELR
modifications: biotinylated (bought so)
Regarding B5, in assay [5], the binding result is “no binding”.
